Source: paper PMC10720262 (Cell Reports, 2023)
Numbering of substitutions follows the chain as printed.

B1: CL-531383 (antibody, V domains shown)
VH: QVQLVESGGGVVQPGRSLRLSCAASGFTFSSFGMHWVRQTPVKGLEWVALIWYDGSHKFYADSVRGRFIISRDNSKNTLFLQMNSLRAEDTAIYYCAKVINYGSGNYYNNYKYTMDVWGQGTTVTVSS
VL: DIQMTQSPSTLSASVGDRVTITCRASQSISSWLAWYQQKPGKAPKVLIYKASSLESGVPSRFSGSGSGTEFTLTISSLQPDDFATYYCQQYNTYWTFGQGTKVEIK
B2: CL-531969 (antibody, V domains shown)
VH: QVQLVESGGGVVQPGRSLRLSCAASGFTFSSSGMHWVRQAPGMGLEWVAIIWYDGSNKFYADSVKGRFTISRDNSKNTLYLQMNSLRAEDTAVYYCARAYVSGNYGDNYGMDVWGQGTTVTVSS
VL: B1 VL with Y36F, V46L, S76N, Y87F, T93Y
B3: CL-531912 (antibody, V domains shown)
VH: B2 VH with Q1L, M43K, N104S, Y105H, N108K
VL: B1 VL with Y36F, V46L, S76N, Y87F, T93N
B4: CL-532061 (antibody, V domains shown)
VH: QVQLVESGGGVVQPGRSLRLSCVASRFTFSNYGMHWVRQTPGKGLEWVAIIWYDGSNKFYGDSVKGRFTISRDNSRNTLYLQMNNLRAEDTAVYYCARAYDDFVDHDKYGMDVWGQGTTVTVSS
VL: B1 VL with T22S, S31I, P40S, V46L, S53R, T93S
B5: CL-532151 (antibody, V domains shown)
VH: B2 VH with R16G, S31G, Q39H, M43K, K76R, N108K
VL: B1 VL with S31N, Y36F, V46L, S76N, Y87F, T93Y
B6: mAb Ky15.1 (human IgG1) (antibody, V domains shown)
VH: QVQLVESGGGVVQPGRSLRLSCAASGFTFSNFGMHWVRQTPDRGLEWVAIIWFDGSNTFYADSVKGRFTISRDNYKNTLYLQMNSLRAEDTAVYFCARSFYSDSAGSLFDYWGQGTLVTVSS
VL: B1 VL with L33V, V46L, S53D, S56T, S77G, A84V, Q89L, Y91N, N92M, T93R
B7: Ky230 (antibody, V domains shown)
VH: QVQLVESGGGVVQPGRSLRLSCAASGFTFSDYGMHWVRQAPGKGLEWVAIIWHDGSNKYYVDSVKGRFTISRDNSKNTLYLQMNSLRAEDTAVYYCARAASSFGSGFDYWGQGTLVTVSS
VL: DVVMTQSPLSLPVTLGQPASIFCRSSQSLVYSDGNTYLNWFQRRPGQSPRRLIYKVSDRDSGVPDRFSGSGSGTDFTLQISRVEAEDVGVYYCMQGTHWPPTFGQGTKVEIK
notes: source: CHO-3E7, purified (MabSelect SuRe LX)
B8: Ky15.10 (antibody, V domains shown)
VH: QVQLVESGGGVVQPGRSLRLSCAASGFTFSNSGMHWVRQVPGKGLEWVAIIWYDGSNKYYADSVKGRFSVSRDNSENTLYLQMSNLRAEDTAVYYCVRAYFDSENLYDYYGMDVWGQGTTVTVSS
VL: B1 VL with S31R, Y36F, Q38K, V46L, K50T, S53N, N92Y, T93N, I105V
notes: as for B7
B9: Ky15.7 (antibody, V domains shown)
VH: QVQVVESGGGAVQPGRSLRLSCAASGFTFSNRGMHWVRQTPGKGLEWVAIIWYDGGNKFYADSVKGRFTISRDNSKNTLYLQMNSLRDEDTAVYYCVRAGDWKADKYTMDVWGQGTTVTVSS
VL: B1 VL with K50Q, T93S
notes: as for B7
B10: Ky15.1 (antibody, V domains shown)
VH: B6 VH
VL: B1 VL with L33V, V46L, S53D, S56T, S77G, A84V, Q89L, Y91N, N92M, T93R
notes: as for B7
B11: Ky15.11 (antibody, V domains shown)
VH: QVQLVESGGGVVQPGRSLRLSCEASGFTFSNFGMHWVRQTPVKGLEWVAIIWFDGSYKYYTDSVKGRFTISRDNSKNTLYLQMNSLRAEDTAVYYCARARKGQRSDYYGSETSYTFDNWGQGTLVTVSS
VL: B1 VL with S30N, S31G, V46F, S53I, V58I, N92S, T93S
notes: as for B7
B12: Ky15.2 (antibody, V domains shown)
VH: QVLLVESGGGVVQPGTSLRLSCVASGFSFSTYGMHWVRQSPGKGLEWVAIIWYDGGNKFYADSVQGRFTVSRDNSKNTLYLQMNSLRAEDTAVYYCAKAYRTSLDKKYGMDVWGQGTTVTVSS
VL: B1 VL with S30A, V46L, Q79H, Y87F, Y91F, N92T, T93S
notes: as for B7
B13: Ky15.5 (antibody, V domains shown)
VH: QVQMVASGGGVVQPGRSLRLSCAVSGFTFRNFGMHWVRQDPGRGLEWVAIIWYDGSYEFYADSVKGRFTISRDNSKNTLYLQMNSLRAEDTAVYYCARSYGSLTGDETKYGMDVWGQGTTVTVSS
VL: B1 VL with Y36F, V46L, N92K, T93N
notes: as for B7
B14: Ky315 (antibody, V domains shown)
VH: QVQLVESGGGVVQPGRSLRLSCAASGFTLSNYGVHWVRQAPGTGLEWVALIWYDGSNKFYADSVKGRFTISRDNSMDIVYLQMNNLRAEDTALYYCVRPGIAAAGSNYYAMDVWGQGTAVTVSS
VL: EIVMTQSPATLSMSPGERATLSCRASQSVGSDLAWFQQKPGQAPRLLIYGAFTRATGIPARFSGSGSGSEFTLTISSLQSEDFAVYYCQQYNRWWTFGQGTKVEMK
notes: as for B7
B15: Ky311 (antibody, V domains shown)
VH: QMHLVESGGGVVQPGRSLRLSCVASGFTFNNHGMHWVRQAPGKGLEWVAVIWHDGSNKFYADSVNGRFIVSRDNSKNTLYLHMNSLRAEDTAVYYCARDFFVSGSYNYFDPWGQGTLVTVSS
VL: EIVLTQSPVTLSLSPGERATLSCRASQSVSNYLAWYQQKPGQAPRLLIYDAANRATGTPARFSGSGSGTDFTLTISSLEPEDFAVYFCQQRSKWFTFGPGTKLDIK
notes: as for B7
B16: Ky224 (antibody, V domains shown)
VH: QVQLVESGGGVVQPGRSLRLSCAASGFTFSVYGMHWVRQAPGKGLEWVAVIWYDGSNKIYADSVKGRFTISRDNSKNTLYLQMDSLSAADTAVYYCAKIGSSSFDYWGQGTLVIVSS
VL: DIVMTQTPLSSPVTLGQPASISCRSSQSLVHSNGITYLSWLQQRPGQPPRLLLYEISNRFSGVPDRFSGSGTGTDFTLKISRVEAEDVGVYYCMQTTQFPITFGQGTRLEIK
notes: as for B7
B17: Ky15.3 (antibody, V domains shown)
VH: QVQLVESGGGVVQPGRSLRLSCVASGFTFSNAGMHWVRQTPGKGLEWVAIIWYDGSIKYYGESVKGRFTISRDNSKNTLYLEMSSLRAEDTAVYFCVRAYSGSLYDKYGMDVWGQGTTVIVSS
VL: DIQMTQSPSTLSASVGDRVTISCRASQTISTWLAWFQQKPGKAPKLLIYAASSLQSGVPSRFSGSGSGTDFTLTISNLQPDDFATYYCQQFNSYWTFGQGTKVEIK
notes: as for B7
B18: Ky15.8 (antibody, V domains shown)
VH: QVQLVESGGNVVQPGRSLRLSCTASGFTFSSYGMHWVRQAPDKGLEWVAIIWYDGGNKFYADSVKGRFTISRDNSKDTLYLQMNSLRAEDTAVYYCAKAWYKIDDKYSMDVWGQGTTVTVSS
VL: not shown
notes: as for B7

biological target: T1, recombinant full-length PfCSP (Plasmodium falciparum circumsporozoite protein, strain NF54) (Plasmodium falciparum NF54, UniProt P19597); assay: not given; conditions: not given
T1 sequence (P19597 20-375): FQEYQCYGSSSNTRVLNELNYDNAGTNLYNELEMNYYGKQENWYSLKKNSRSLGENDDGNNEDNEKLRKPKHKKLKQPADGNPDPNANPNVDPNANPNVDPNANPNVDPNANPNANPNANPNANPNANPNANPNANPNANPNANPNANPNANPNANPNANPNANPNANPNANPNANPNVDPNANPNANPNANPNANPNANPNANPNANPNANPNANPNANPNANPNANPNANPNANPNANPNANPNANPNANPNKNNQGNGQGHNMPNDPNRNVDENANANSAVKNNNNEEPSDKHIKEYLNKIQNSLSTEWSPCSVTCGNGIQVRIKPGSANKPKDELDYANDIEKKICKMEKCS

Binder | binding result
B1 | binds
B2 | binds
B3 | binds
B4 | binds
B5 | binds

biological target: T1, recombinant full-length PfCSP …; assay: cell-based or functional assay; conditions: not given

Binder | other
B6 | < 1.5 µg/mL

biological target: T2, NANP6 peptide (Plasmodium falciparum NF54); assay: SPR; Carterra LSA; mAb amine-coupled to a CMD200M chip, peptide titrated in 2-fold steps up to 8 ug/mL without regeneration; 25 C; HBSTE (10 mM HEPES pH 7.4, 150 mM NaCl, 3 mM EDTA, 0.01% Tween 20); 1:1 Langmuir model; mean of triplicates; KD includes avidity for antigens with several repeats; conditions: both partners purified
T2 construct: source: synthetic peptide (CPC Scientific)

Binder | Kd
B7 | 0.257 nM
B8 | 0.0153 nM
B9 | 0.113 nM
B10 | 0.0384 nM
B11 | ≤ 0.0357 nM
B12 | 0.0713 nM
B13 | ≤ 0.0369 nM
B14 | 0.0723 nM
B15 | ≤ 0.0233 nM
B16 | 1.34 nM
B17 | ≤ 0.0174 nM
B18 | ≤ 0.0312 nM
